Test [1] has as its target Heartland virus (HRTV) nucleocapsid (N) protein (Heartland virus (HRTV)). Kind of test: ELISA, purified HRTV coated on the plate, MAb titrated. In general terms: In an ELISA, binding on a coated surface is turned into a signal by an enzyme label.
Test [2] shares this target.
In test [3] the target is SFTSV antigen (SFTSV-infected Vero cells). The test can be described thus: IFA on acetone-fixed SFTSV-infected Vero cells, MAb in doubling dilutions.

B1: MAb 2AG8 (antibody, V domains shown)
VH: VKLEESGAELVRSGASLKMSCKASGYTFTSYNLHWVKQTPGQGLEWIGYIFPGNGGTAYNEKFKGKATLTADTSSSTAYMQISSLTSEDSAVYFCARGGPYYALDYWGQGTSVTVSS
VL: DIVMTQSPASLSASVGETVTITCRTSGNIHTYLAWYQHKQGKSPQLLVYYAKTLADGVPSRFSGSGSGTQYSLKINSLQPEDFGSYYCQHFWSNPRTFGGGTKLEIKR
In test [1], B1 gave an ELISA endpoint titer of 0.381 ng/mL. The ELISA endpoint in test [2] came out at 0.381 ng/mL.

B2: MAb 2AG9 (antibody, V domains shown)
VH: ELARPGASVKLSCKASGYTFTNYYMQWIKQRPGQGLEWIGAVYPGDGDTRYTQKFKGKASLTADKSSTTAYMQLSSLASEDSAVYYCTRGDYEGTWFTYWGQGTLVTVSA
VL: DIVMTQTTAIMSASPGEKVTMTCSASSSVSYMHWYQQKSGTSPKRWMYDTSKLASGVPGRFSGSGSGTTYSLTISTMEAEDAATYYCQQWSSNPPTFGGGTKLEIK
The molecule B2 yielded an ELISA endpoint titer in test [1] of 1.53 ng/mL. The ELISA endpoint in test [2] was 1.53 ng/mL.

B3: MAb 2BB6 (antibody, V domains shown)
VH: EVQLEESGPDLVKPSQSLSLTCTVTGFSITSGYSWHWIRQFPGNKLEWMGYIHFSGSTNYNPSLKSRISITRDTSKNQFFLQLSSVTTDDTGTYYCARDLTGIDSWGQGTTLTVSS
VL: DIVMTQTPAIMSASPGEKVTISCSASSSVSYMYWFQQKPGSSPKPWIYRTSNLASGVPARFSGSGSGTSYSVTISSMEAEDAATYYCQQYHSYPLTFGAGTKLELK
In test [2], B3 displayed an ELISA endpoint of 10000 ng/mL.

B4: MAb 2AF11 (antibody, V domains shown)
VH: QVTLKESGPGILQPSQTLSLTCSFSGFSLSTSGMSVGWIRQPSGKGLEWLAHIWWNDDMYYNPALESRLTISKDTSNNQVFLKIASVVTADTATYYCARIALTGPYWYFDVWGAGTTVTVSS
VL: DIVMTQTPASLSASVGETVTITCRASENIYSYLAWYQQKQGKSPQLLVNNAKTLAEGVPSRFSGSGSGTQFSLKINSLQPEDCGNYYCQHHYGTPLTFGAGTKLELK
The molecule B4 had an IFA endpoint titer in test [3] of 1 µg/mL. For the same molecule, the ELISA endpoint in test [2] came out at 10000 ng/mL.

B5: MAb 2BA2 (antibody, V domains shown)
VH: VQLQESGPGLVKPSQPLSLTCSVTGYSITSAYYWNWIRQFPGNKLEWMGYITYDGTNNYNPSLKNRISITRDTSKNQFFLKLNSVTTEDTASYYCARDVATVGAMDYWGQGTSVTVSS
VL: SIVMTQTPKFLLVSAGDRVTITCKASQSVSNDVAWYQQKPGQSPKLLIYFASNRYTGVPDRFTGSGYGTDFTFTISTVLAEDLALYFCQQDYSSPRTFGGGTKLEVK
Molecule B5 registered an ELISA endpoint titer in test [1] of 39.1 ng/mL. Also, the ELISA endpoint in test [2] is 39.1 ng/mL.

B6: MAb 2BB7 (antibody, V domains shown)
VH: EVQLQQSGPDLVKPGASMKISCKASGYSFTAYTMNWVKQSHGKNLEWIGLISPYNGGTSYNQKFKGKATLTVDKSSSTAYMELLSLTSEDSAVYYCARQIGPYFDHWGQGTTLTVSS
VL: IVMTQTTPSSMYASLGERVTITCKASQDIKSSFSWFQQKPGKSPKTLIYRASRLVDGVPSRFSGSGSGQDSSLTISSLEYEDMGIYYCLQCDEFPYTFGGGTKLEIK
In test [1], B6 came in with an ELISA endpoint titer of 24.4 ng/mL. Besides, the ELISA endpoint in test [2] came out at 24.4 ng/mL.

B7: MAb 2BB5 (antibody, V domains shown)
VH: EVQLEESGGGLVQPGGSMKLSCVASGFTFSNYWMNWVRQSPEKGLEWVAEVRLNSNNYATHYAESVKGRFTISRDDSKSSVYLQMSNLRSEDTGIYYCSTDYYGYAMDYWGQGTSVTVSS
VL: DIVMTQTPSIMSASPGEKVTITCSASSNVNYMHWFQQKPGTSPKLWIYSTSNLASGVPARFSGSGSGTSYSLTISRMEAEDAATYYCQQRSNYPPTFGAGTKLELK
B7 had an ELISA endpoint titer in test [1] of 0.156 ng/mL. The ELISA endpoint in test [2] turned out to be 0.156 ng/mL.

B8: MAb 2BB8 (antibody, V domains shown)
VH: QAYLQQSGAELVRSGASLKMSCKASGYTFTSYNLHWVKQTPGQGLEWIGYIFPGNGGTAYNEKFKGKATLTADTSSSTAYMQISSLTSEDSAVYFCARGGPYYALDYWGQGTSVTVSS
VL: DIQMTQSPASLSASVGETVTITCRTSGNIHTYLAWYQHKQGKSPQLLVYYAKTLADGVPSRFSGSGSGTQYSLKINSLQPEDFGSYYCQHFWSNPRTFGGGTKLEIK
In the case of B8, in test [1], the ELISA endpoint titer is 0.61 ng/mL. Also, the ELISA endpoint in test [2] was determined as 0.61 ng/mL.

These data come from patent US20180244757A1.
